Numbering of substitutions follows the chain as printed. Blank lines part the entries; values can stand above or below the binder they belong to.
Legend:
[1] = target: T1, human CD19 on Raji cells (human, UniProt P15391 20-556); assay: FACS on Raji cells (CD19-positive), dose-response
T1 construct: whole, on cells; also called native form of hCD19
T1 sequence (looked up): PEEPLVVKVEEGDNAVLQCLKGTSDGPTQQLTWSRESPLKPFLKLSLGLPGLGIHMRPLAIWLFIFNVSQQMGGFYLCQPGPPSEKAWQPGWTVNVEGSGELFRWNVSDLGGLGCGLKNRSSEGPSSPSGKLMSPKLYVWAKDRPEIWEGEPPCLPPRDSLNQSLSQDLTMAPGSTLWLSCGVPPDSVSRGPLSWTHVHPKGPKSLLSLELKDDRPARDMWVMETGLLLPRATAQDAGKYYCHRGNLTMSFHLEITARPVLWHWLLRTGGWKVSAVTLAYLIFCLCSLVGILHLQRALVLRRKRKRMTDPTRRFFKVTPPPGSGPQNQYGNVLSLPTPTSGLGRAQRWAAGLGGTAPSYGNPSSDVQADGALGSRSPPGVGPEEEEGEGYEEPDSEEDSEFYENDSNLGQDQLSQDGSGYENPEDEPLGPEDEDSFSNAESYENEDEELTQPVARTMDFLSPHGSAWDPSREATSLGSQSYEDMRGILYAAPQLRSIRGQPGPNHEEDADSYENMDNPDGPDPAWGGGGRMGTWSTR

[2] = target: T2, human CD47 on the cell surface (human, UniProt Q08722 19-323); assay: adsorption on erythrocytes: antibody in human whole blood, 30 min at 37 °C, antibody left in plasma measured by ELISA
T2 construct: whole, on cells; also called huCD47; native CD47
Method: (§1) With more than 5 billion cells per ml of blood, and 25,000 CD47 molecules per cell, erythrocytes represent potentially the major antigen sink for CD47-binding antibodies. To assess the effect of erythrocyte adsorption, CD47 antibodies were incubated with whole blood. Following incubation, the fraction of CD47 antibodies remaining in the plasma was determined by ELISA.
(§2) In brief, 200 μl of whole blood containing an anti-coagulant was mixed with 20 μl of antibody ([…] in PBS) and incubated for 30 minutes at 37° C. with shaking. The plasma was then separated from the cells by centrifugation, and the concentration of unbound antibody determined by ELISA.

[3] = target: T3, human CD19 (human, UniProt P15391 20-291, limits assumed); assay: second round of affinity maturation (from D11)
T3 construct: also called hCD19
T3 sequence (looked up): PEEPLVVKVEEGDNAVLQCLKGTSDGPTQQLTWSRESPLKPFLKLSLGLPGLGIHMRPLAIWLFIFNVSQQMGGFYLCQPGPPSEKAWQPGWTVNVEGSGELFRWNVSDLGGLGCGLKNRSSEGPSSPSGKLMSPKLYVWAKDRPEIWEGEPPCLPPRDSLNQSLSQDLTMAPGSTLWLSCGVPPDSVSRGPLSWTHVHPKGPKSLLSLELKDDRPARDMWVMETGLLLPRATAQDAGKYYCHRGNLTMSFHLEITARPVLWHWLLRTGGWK

[4] = target: T4, human CD47 (human, UniProt Q08722 19-141, limits assumed); assay: surface plasmon resonance
T4 construct: also called hCD47

[5] = target: T4, human CD47; assay: CD47/SIRPα binding assay, inhibition of SIRPα binding to CD47; format not stated for this figure
[6] = target: T4, human CD47; assay: affinity maturation by phage display on hCD47; positive in hCD47-SIRPα inhibition screen, reformatted as IgG
[7] = target: T2, human CD47 on the cell surface; assay: flow cytometry, CHO cells stably transfected with human CD47, antibody 10 µg/ml, Cy-5 anti-human Fc; non-transfected CHO cells as control
Method: Non-transfected CHO cells were used as control. In brief, purified CD47 Mabs were incubated with CHO-huCD47 cells at a final concentration of 10 μg/ml for 30 minutes. After two washes, bound CD47 antibodies were detected using a Cy-5 conjugated anti-human Fc secondary antibody (BD biosciences).

[8] = target: T4, human CD47; assay: screening of Examples 3 to 6
[9] = target: T5, cynomolgus monkey CD47 on CD4+ T cells (cynomolgus monkey, UniProt A0A5F8AK49 19-323 (rhesus entry)); assay: flow cytometry on CD4+ T cells in cynomolgus PBMC
T5 construct: whole, on cells; also called cynomolgus CD47

[10] = target: T2, human CD47 on the cell surface; assay: CD47-SIRPα competitive binding assay: His-tagged soluble human SIRPα (200 ng/ml) on hCD47-transfected CHO cells, antibody 3.3 pM-330 nM; blocked ligand SIRPα
[11] = target: T2, human CD47 on the cell surface; assay: FACS on DS-1 cells (CD19-negative, CD47-positive), human IgG1 format, 0.01-10 µg/ml
Method: (§3) The graphs in FIGS. 9A-9C present FACS profiles generated with monovalent and bispecific antibodies binding to CD19-negative B-NHL cells (DS-1) and CD19-positive Burkitt lymphoma cells (Raji). All antibodies were human IgG1 format and were tested at four concentrations as indicated.
(§4) Two types of cells were used, a CD19-positive Burkitt lymphoma cell line Raji (expressing about 65,000 CD47 molecules per cell) and the CD19-negative B-NHL cell line DS-1 (expressing about 150,000 CD47 molecules per cell) as a control.

[12] = target: T1, human CD19 on Raji cells; assay: FACS on Raji cells (CD19-positive, CD47-positive), human IgG1 format, 0.01-10 µg/ml; both targets are on the cells, the filing ascribes the binding to co-engagement driven mainly by the CD19 arm
Method: as §3, §4

[13] = target: T2, human CD47 on the cell surface; assay: adsorption on erythrocytes: antibody 10 µg/ml in human whole blood, 30 min at 37 °C, antibody left in plasma measured by ELISA
Method: as §1, §2

B1: C2 antibody (antibody, human IgG1, lambda, V domains shown)
VH: not shown
VL: NFMLTQPHSVSESPGKTVTISCTRSSGSIEDKYVQWYQQRPGSSPTIVIYYDNERPSGVPDRFSGSIDSSSNSASLTISGLKTEDEADYYCQTYDQSLYGWVFGGGTKLTVLG
notes: anti-CD19, IgG, lambda; also called L7B7_C2; L7B7_c2
EC50 (read off the curve) [1]: ~0.4 nM
binding result [2]: no binding (tested: 10 µg/ml)

B2: C9 antibody (antibody, human IgG1, lambda, V domains shown)
VH: not shown
VL: B1 VL with E30A, Q96E
notes: anti-CD19, IgG, lambda; also called L7B7_C9
binding result [3]: binds

B4: C6 antibody (antibody, human IgG1, lambda, V domains shown)
VH: not shown
VL: B1 VL with E30N, Y51F, Q96T
notes: anti-CD19, IgG, lambda; also called L7B7 C6
binding result [3]: binds

B5: B11 antibody (antibody, human IgG1, lambda, V domains shown)
VH: not shown
VL: B1 VL with Q96N
notes: anti-CD19, IgG, lambda; also called L7B7_B11
binding result [3]: binds

B8: Ke8 antibody (antibody, human IgG1, kappa, V domains shown)
VH: not shown
VL: DIQMTQSPSSLSASVGDRVTITCRASQSISSYLNWYQQKPGKAPKLLIYAASSLQSGVPSRFSGSGSGTDFTLTISSLQPEDFATYYCQQFHKRRPQTFGQGTKVEIKR
notes: IgG, kappa (IGVK1-39)
binding result [8]: binds
binding result [9]: no binding (tested: 0.005 mg/ml)
binding result [10]: binds

B9: Ka3 antibody (antibody, human IgG1, kappa, V domains shown)
VH: not shown
VL: B8 VL with F91M, K93P, R95A, Q97K
notes: IgG, kappa (IGVK1-39)
binding result [8]: binds
binding result [10]: binds

B12: Kc4B1 antibody (antibody, human IgG1, lambda, V domains shown)
VH: not shown
VL: QSALTQPASVSGSPGQSITISCTGTSSDVRANNYVSWYQQHPGKAPKLMIYESSARPSGVSNRFSGSKSGNTASLTISGLQAEDEADYYCSSYDWWFRPKVFGGGTKLTVLG
notes: IgG, lambda
binding result [6]: binds
binding result [10]: binds

B13: Kc4G11 antibody (antibody, human IgG1, lambda, V domains shown)
VH: not shown
VL: B12 VL with R30G, A31K, N32A, E52K, S53D, A55D
notes: IgG, lambda
binding result [6]: binds
binding result [10]: binds

B16: Ke8G11xC2 (bispecific antibody, human IgG1, kappa, lambda)
common heavy chain: not shown
kappa light chain (Ke8G11, anti-CD47): DIQMTQSPSSLSASVGDRVTITCRASQSIGRYLNWYQQKPGKAPKLLIYAASSLQSGVPSRFSGSGSGTDFTLTISSLQPEDFATYYCQQMHPRGPKTFGQGTKVEIKRTVAAPSVFIFPPSDEQLKSGTASVVCLLNNFYPREAKVQWKVDNALQSGNSQESVTEQDSKDSTYSLSSTLTLSKADYEKHKVYACEVTHQGLSSPVTKSFNRGEC
lambda light chain (C2, anti-CD19): NFMLTQPHSVSESPGKTVTISCTRSSGSIEDKYVQWYQQRPGSSPTIVIYYDNERPSGVPDRFSGSIDSSSNSASLTISGLKTEDEADYYCQTYDQSLYGWVFGGGTKLTVLGQPKAAPSVTLFPPSSEELQANKATLVCLISDFYPGAVTVAWKADSSPVKAGVETTTPSKQSNNKYAASSYLSLTPEQWKSHRSYSCQVTHEGSTVEKTVAPTECS
notes: also called CD47xCD19 BsAb Ke8G11xC2; bispecific antibody Ke8G11×C2
binding result [12]: binds

B17: Ka3xC2 (bispecific antibody, human IgG1, kappa, lambda)
common heavy chain: not shown
kappa light chain (Ka3, anti-CD47): not shown
lambda light chain (C2, anti-CD19): B16 lambda light chain (C2, anti-CD19)
notes: m75 has the same CD47 arm but no named CD19 arm; also called CD47xCD19 BsAb Ka3xC2; bispecific antibody Ka3×C2
binding result [11]: binds
binding result [12]: binds

B18: 5A3M3xC2 (bispecific antibody, human IgG1, kappa, lambda)
common heavy chain: not shown
kappa light chain (5A3-M3, anti-CD47): not shown
lambda light chain (C2, anti-CD19): B16 lambda light chain (C2, anti-CD19)
notes: m69 has the same CD47 arm but no named CD19 arm; also called bispecific antibody 5A3-M3×C2
binding result [13]: binds

The remaining lines, values ahead:

binding result [3]: binds
B3: A6 antibody (antibody, human IgG1, lambda, V domains shown)
VH: not shown
VL: B1 VL with E30G, Q96E
notes: anti-CD19, IgG, lambda; also called L7B7_A6

Kd [4]: ~23.6 nM
IC50 (read off the curve) [5]: ~0.08 nM
B6: 5A3 antibody (antibody, human IgG1, kappa, V domains shown)
VH: not shown
VL: DIQMTQSPSSLSASVGDRVTITCQASQDINKYLNWYQQKPGKAPKLLIYGASRLETGVPSRFSGSGSGTDFTFTISSLQPEDIATYYCQQKHPRGPRTFGQGTKVEIKR
notes: IgG, common heavy chain, kappa light chain

binding result [6]: binds
binding result [7]: binds
B7: Ke8A2 antibody (antibody, human IgG1, kappa, V domains shown)
VH: not shown
VL: B8 VL with S30D, S31R, F91K, K93P, R95G, Q97R
notes: IgG; also called KE8-P2A2; KE8A25

Kd [4]: ~2840 nM
IC50 (read off the curve) [5]: ~3 nM
B10: 5A3-M5 antibody (antibody, human IgG1, kappa, V domains shown)
VH: not shown
VL: B6 VL with G95Y
notes: IgG, variant of 5A3 with changed VL

binding result [8]: binds
binding result [10]: binds
B11: Kc4 antibody (antibody, human IgG1, lambda, V domains shown)
VH: not shown
VL: B12 VL with R30G, A31G, N32Y, S53V, A55N
notes: IgG, lambda (IGVL2-14)

binding result [6]: binds
binding result [10]: binds
B14: Kc4G9 antibody (antibody, human IgG1, lambda, V domains shown)
VH: not shown
VL: B12 VL with R30E, A31R, N32K, E52K, S53N, A55T
notes: IgG, lambda

binding result [11]: binds
binding result [12]: binds
B15: 5A3M5xC2 (bispecific antibody, human IgG1, kappa, lambda)
common heavy chain: not shown
kappa light chain (5A3-M5, anti-CD47): not shown
lambda light chain (C2, anti-CD19): B16 lambda light chain (C2, anti-CD19)
notes: also called CD47xCD19 BsAb 5A3M5xC2; bispecific antibody 5A3-M5×C2
